{
  "source": "paper PMC2693498",
  "about": "“The triple combination of tenofovir, emtricitabine and efavirenz shows synergistic anti-HIV-1 activity in vitro: a mechanism of action study”",
  "binders": {"B1": {"name": "D20/D36C, FTC-MP-terminated (dsDNA)", "DNA 1": "GTCCCTGTTCGGGCGCCACC", "DNA 2": "TCTCTAATGGTGGCGCCCGAACAGGGACCTGAAAGC", "modifications": "3'-terminal C of primer is emtricitabine-MP"}, "B2": {"name": "D20/D36C, ddCMP-terminated (dsDNA)", "DNA 1": "GTCCCTGTTCGGGCGCCACC", "DNA 2": "B1 DNA 2", "modifications": "3'-terminal C of primer is ddCMP"}, "B3": {"name": "D26/D50, ddAMP-terminated (dsDNA)", "DNA 1": "CTGAGACAACATCTGCTGAGGTAGGA", "DNA 2": "TGTCGTGTGGTGTCGTGTGGTATGTCCTACCTCAGCAGATGTTGTCTCAG", "modifications": "3'-terminal A of primer is ddAMP"}, "B4": {"name": "D27/D50, ddCMP-terminated (dsDNA)", "DNA 1": "CTGAGACAACATCTGCTGAGGTAGGAC", "DNA 2": "B3 DNA 2", "modifications": "3'-terminal C of primer is ddCMP"}, "B5": {"name": "D26/D50, TFV-terminated (dsDNA)", "DNA 1": "CTGAGACAACATCTGCTGAGGTAGGA", "DNA 2": "B3 DNA 2", "modifications": "3'-terminal A of primer is tenofovir (chain terminator)"}, "B6": {"name": "D27/D50, FTC-MP-terminated (dsDNA)", "DNA 1": "CTGAGACAACATCTGCTGAGGTAGGAC", "DNA 2": "B3 DNA 2", "modifications": "3'-terminal C of primer is emtricitabine-MP"}},
  "key": {"[1]": {"target": "T1, HIV-1 reverse transcriptase p66/p51, wild-type (HIV-1, UniProt P04585;P04585 588-1147;588-1027)", "assay": "EMSA; EFV titrated (ligand Kd); Bmax 5.53%; DEC binding buffer not in the material; 6% non-denaturing PAGE; DEC defined as resistant to excess competitor template; primer/template annealed 1:1.3 in 50 mM", "conditions": "protein: recombinant; tags: N-terminal 6-His; copies: 1;1; label: 5'-32P primer; template overhangs: 5' 8 nt, 3' 8 nt"}, "[2]": {"target": "T1, HIV-1 reverse transcriptase p66/p51, …", "assay": "EMSA; dATP titrated (ligand Kd); Bmax 38.0%; DEC binding buffer not in the material; 6% non-denaturing PAGE; DEC defined as resistant to excess competitor template; primer/template annealed 1:1.3 in 50 mM", "conditions": "protein: recombinant; tags: N-terminal 6-His; copies: 1;1; label: 5'-32P primer; template overhangs: 5' 8 nt, 3' 8 nt"}, "[3]": {"target": "T1, HIV-1 reverse transcriptase p66/p51, …", "assay": "EMSA; EFV titrated (ligand Kd); Bmax 14.9%; DEC binding buffer not in the material; 6% non-denaturing PAGE; DEC defined as resistant to excess competitor template; primer/template annealed 1:1.3 in 50 mM", "conditions": "protein: recombinant; tags: N-terminal 6-His; copies: 1;1; label: 5'-32P primer; template overhangs: 5' 8 nt, 3' 8 nt"}, "[4]": {"target": "T1, HIV-1 reverse transcriptase p66/p51, …", "assay": "EMSA; TFV-DP titrated (ligand Kd); Bmax 15.3%; DEC binding buffer not in the material; 6% non-denaturing PAGE; DEC defined as resistant to excess competitor template; primer/template annealed 1:1.3 in 50 mM", "conditions": "protein: recombinant; tags: N-terminal 6-His; copies: 1;1; label: 5'-32P primer; template overhangs: 5' 8 nt, 3' 8 nt"}, "[5]": {"target": "T1, HIV-1 reverse transcriptase p66/p51, …", "assay": "EMSA; EFV titrated (ligand Kd); Bmax 11.2%; DEC binding buffer not in the material; 6% non-denaturing PAGE; DEC defined as resistant to excess competitor template; primer/template annealed 1:1.3 in 50 mM", "conditions": "protein: recombinant; tags: N-terminal 6-His; copies: 1;1; label: 5'-32P primer; template 5' overhang 24 nt, other end blunt"}, "[6]": {"target": "T1, HIV-1 reverse transcriptase p66/p51, …", "assay": "EMSA; dCTP titrated (ligand Kd); Bmax 55.8%; DEC binding buffer not in the material; 6% non-denaturing PAGE; DEC defined as resistant to excess competitor template; primer/template annealed 1:1.3 in 50 mM", "conditions": "protein: recombinant; tags: N-terminal 6-His; copies: 1;1; label: 5'-32P primer; template 5' overhang 24 nt, other end blunt"}, "[7]": {"target": "T1, HIV-1 reverse transcriptase p66/p51, …", "assay": "EMSA; FTC-TP titrated (ligand Kd); Bmax 60.2%; DEC binding buffer not in the material; 6% non-denaturing PAGE; DEC defined as resistant to excess competitor template; primer/template annealed 1:1.3 in 50 mM", "conditions": "protein: recombinant; tags: N-terminal 6-His; copies: 1;1; label: 5'-32P primer; template 5' overhang 24 nt, other end blunt"}, "[8]": {"target": "T1, HIV-1 reverse transcriptase p66/p51, …", "assay": "EMSA; EFV titrated (ligand Kd); Bmax 10.6%; DEC binding buffer not in the material; 6% non-denaturing PAGE; DEC defined as resistant to excess competitor template; primer/template annealed 1:1.3 in 50 mM", "conditions": "protein: recombinant; tags: N-terminal 6-His; copies: 1;1; label: 5'-32P primer; template 5' overhang 23 nt, other end blunt"}, "[9]": {"target": "T1, HIV-1 reverse transcriptase p66/p51, …", "assay": "EMSA; TFV-DP titrated (ligand Kd); Bmax 55%; DEC binding buffer not in the material; 6% non-denaturing PAGE; DEC defined as resistant to excess competitor template; primer/template annealed 1:1.3 in 50 mM", "conditions": "protein: recombinant; tags: N-terminal 6-His; copies: 1;1; label: 5'-32P primer; template 5' overhang 23 nt, other end blunt"}, "[10]": {"target": "T1, HIV-1 reverse transcriptase p66/p51, …", "assay": "EMSA; dATP titrated (ligand Kd); Bmax 60%; DEC binding buffer not in the material; 6% non-denaturing PAGE; DEC defined as resistant to excess competitor template; primer/template annealed 1:1.3 in 50 mM", "conditions": "protein: recombinant; tags: N-terminal 6-His; copies: 1;1; label: 5'-32P primer; template 5' overhang 23 nt, other end blunt"}, "[11]": {"target": "T1, HIV-1 reverse transcriptase p66/p51, …", "assay": "EMSA; FTC-TP titrated (ligand Kd); Bmax 50.0%; DEC binding buffer not in the material; 6% non-denaturing PAGE; DEC defined as resistant to excess competitor template; primer/template annealed 1:1.3 in 50 mM", "conditions": "protein: recombinant; tags: N-terminal 6-His; copies: 1;1; label: 5'-32P primer; template 5' overhang 24 nt, other end blunt"}, "[12]": {"target": "T1, HIV-1 reverse transcriptase p66/p51, …", "assay": "EMSA; EFV titrated (ligand Kd); Bmax 44.4%; DEC binding buffer not in the material; 6% non-denaturing PAGE; DEC defined as resistant to excess competitor template; primer/template annealed 1:1.3 in 50 mM", "conditions": "protein: recombinant; tags: N-terminal 6-His; copies: 1;1; label: 5'-32P primer; template 5' overhang 24 nt, other end blunt"}, "[13]": {"target": "T1, HIV-1 reverse transcriptase p66/p51, …", "assay": "EMSA; dCTP titrated (ligand Kd); Bmax 50.0%; DEC binding buffer not in the material; 6% non-denaturing PAGE; DEC defined as resistant to excess competitor template; primer/template annealed 1:1.3 in 50 mM", "conditions": "protein: recombinant; tags: N-terminal 6-His; copies: 1;1; label: 5'-32P primer; template 5' overhang 24 nt, other end blunt"}, "[14]": {"target": "T1, HIV-1 reverse transcriptase p66/p51, …", "assay": "EMSA; EFV titrated (ligand Kd); Bmax 3.96%; DEC binding buffer not in the material; 6% non-denaturing PAGE; DEC defined as resistant to excess competitor template; primer/template annealed 1:1.3 in 50 mM", "conditions": "protein: recombinant; tags: N-terminal 6-His; copies: 1;1; label: 5'-32P primer; template 5' overhang 23 nt, other end blunt"}},
  "data": [
    {"binder": "B1", "values": [
      {"measurement": "apparent K (half saturation)", "setting": "[1]", "result": "1540 ± 330", "unit": "nM"}
    ]},
    {"binder": "B2", "values": [
      {"measurement": "apparent K (half saturation)", "setting": "[2]", "result": "16.9 ± 8.5", "unit": "µM"},
      {"measurement": "apparent K (half saturation)", "setting": "[3]", "result": "1030 ± 250", "unit": "nM"},
      {"measurement": "apparent K (half saturation)", "setting": "[4]", "result": "445 ± 114", "unit": "µM"}
    ]},
    {"binder": "B3", "values": [
      {"measurement": "apparent K (half saturation)", "setting": "[5]", "result": "2420 ± 1100", "unit": "nM"},
      {"measurement": "apparent K (half saturation)", "setting": "[6]", "result": "8.1 ± 2.1", "unit": "µM"},
      {"measurement": "apparent K (half saturation)", "setting": "[7]", "result": "86.8 ± 0.2", "unit": "µM"}
    ]},
    {"binder": "B4", "values": [
      {"measurement": "apparent K (half saturation)", "setting": "[8]", "result": "110 ± 60", "unit": "nM"},
      {"measurement": "apparent K (half saturation)", "setting": "[9]", "result": "140 ± 19", "unit": "µM"},
      {"measurement": "apparent K (half saturation)", "setting": "[10]", "result": "6.5 ± 2.6", "unit": "µM"}
    ]},
    {"binder": "B5", "values": [
      {"measurement": "apparent K (half saturation)", "setting": "[11]", "result": "46.5 ± 7.8", "unit": "µM"},
      {"measurement": "apparent K (half saturation)", "setting": "[12]", "result": "1220 ± 280", "unit": "nM"},
      {"measurement": "apparent K (half saturation)", "setting": "[13]", "result": "179 ± 33", "unit": "µM"}
    ]},
    {"binder": "B6", "values": [
      {"measurement": "apparent K (half saturation)", "setting": "[14]", "result": "1260 ± 240", "unit": "nM"}
    ]}
  ]
}
